{"source": "paper PMC3179954", "about": "“A bacterial PriB with weak single-stranded DNA binding activity can stimulate the DNA unwinding activity of its cognate PriA helicase” (BMC Microbiology, 2011)", "key": {"[1]": {"biological_target": "T1, PriA helicase (Neisseria gonorrhoeae, UniProt Q5F6V8 1-729)", "T1 sequence": "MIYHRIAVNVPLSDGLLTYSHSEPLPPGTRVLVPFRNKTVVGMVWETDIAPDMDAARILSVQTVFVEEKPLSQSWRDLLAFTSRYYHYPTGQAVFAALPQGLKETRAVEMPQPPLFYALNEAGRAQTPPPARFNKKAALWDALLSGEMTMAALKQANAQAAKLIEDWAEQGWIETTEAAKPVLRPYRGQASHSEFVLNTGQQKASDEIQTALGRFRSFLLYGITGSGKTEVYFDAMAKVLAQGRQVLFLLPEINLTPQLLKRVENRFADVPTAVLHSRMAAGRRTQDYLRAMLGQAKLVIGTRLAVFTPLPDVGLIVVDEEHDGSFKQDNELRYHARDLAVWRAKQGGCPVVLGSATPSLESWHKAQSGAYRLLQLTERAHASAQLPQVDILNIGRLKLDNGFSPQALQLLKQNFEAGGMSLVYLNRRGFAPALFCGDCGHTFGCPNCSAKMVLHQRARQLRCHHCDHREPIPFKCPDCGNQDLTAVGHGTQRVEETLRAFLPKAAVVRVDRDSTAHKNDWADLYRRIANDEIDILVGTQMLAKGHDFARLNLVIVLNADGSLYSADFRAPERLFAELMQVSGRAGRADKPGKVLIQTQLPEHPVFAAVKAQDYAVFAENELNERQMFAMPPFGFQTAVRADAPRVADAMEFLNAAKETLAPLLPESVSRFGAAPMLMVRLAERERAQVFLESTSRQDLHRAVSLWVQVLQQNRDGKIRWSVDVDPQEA", "assay": "fluorescence polarization; 20 mM Tris-HCl pH 8, 10% glycerol, 50 mM NaCl, 1 mM 2-mercaptoethanol, 0.1 mg/ml BSA, 1 nM fluorescein-labeled DNA, 25 C", "conditions": "protein: recombinant"}, "[2]": {"biological_target": "T2, PriB (Neisseria gonorrhoeae, UniProt Q5F924 1-100)", "T2 sequence": "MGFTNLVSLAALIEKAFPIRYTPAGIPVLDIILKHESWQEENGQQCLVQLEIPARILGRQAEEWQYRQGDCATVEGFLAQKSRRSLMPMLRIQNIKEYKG", "assay": "fluorescence polarization; 20 mM Tris-HCl pH 8, 10% glycerol, 50 mM NaCl, 1 mM 2-mercaptoethanol, 0.1 mg/ml BSA, 1 nM fluorescein-labeled DNA, 25 C", "conditions": "protein: recombinant, chain copies: 2"}, "[3]": {"biological_target": "T3, N. gonorrhoeae PriA (N. gonorrhoeae) (UniProt Q5F6V8)", "T3 sequence": "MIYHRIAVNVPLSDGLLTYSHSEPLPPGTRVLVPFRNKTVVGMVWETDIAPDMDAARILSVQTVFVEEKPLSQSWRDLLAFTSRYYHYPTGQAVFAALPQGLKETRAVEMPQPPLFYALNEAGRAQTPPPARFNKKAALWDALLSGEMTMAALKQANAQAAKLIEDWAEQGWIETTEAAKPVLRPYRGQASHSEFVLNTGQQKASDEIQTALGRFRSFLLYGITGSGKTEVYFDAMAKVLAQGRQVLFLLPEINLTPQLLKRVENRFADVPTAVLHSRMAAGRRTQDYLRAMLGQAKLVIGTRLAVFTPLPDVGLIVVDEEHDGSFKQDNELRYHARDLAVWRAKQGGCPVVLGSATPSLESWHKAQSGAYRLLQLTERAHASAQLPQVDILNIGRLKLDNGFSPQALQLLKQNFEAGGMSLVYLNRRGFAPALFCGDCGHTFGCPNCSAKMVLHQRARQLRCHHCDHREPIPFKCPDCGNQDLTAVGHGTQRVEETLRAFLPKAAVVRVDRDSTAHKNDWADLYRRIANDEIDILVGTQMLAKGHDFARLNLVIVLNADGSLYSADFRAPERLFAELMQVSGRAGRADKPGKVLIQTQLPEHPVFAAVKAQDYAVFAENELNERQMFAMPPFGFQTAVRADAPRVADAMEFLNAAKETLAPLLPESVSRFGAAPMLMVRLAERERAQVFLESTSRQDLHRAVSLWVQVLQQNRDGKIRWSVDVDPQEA"}, "[4]": {"biological_target": "T3, N. gonorrhoeae PriA (N. gonorrhoeae)", "remark": "listed apart in the source"}, "[5]": {"substrate": "Nc1ncnc2c1ncn2[C@@H]1O[C@H](COP(=O)(O)OP(=O)(O)OP(=O)(O)O)[C@@H](O)[C@H]1O", "assay": "NADH-coupled spectrophotometric ATPase assay (pyruvate kinase / lactate dehydrogenase)", "type": "biochemical, Neisseria gonorrhoeae", "conditions": "100 nM Fork 3 DNA, no PriB, 10 nM PriA, 20 mM Hepes pH 8, 50 mM NaCl, 25°C", "from_the_text": "NADH-coupled spectrophotometric ATPase assay (pyruvate kinase / lactate dehydrogenase) on N. gonorrhoeae PriA"}, "[6]": {"conditions": "label: 3' fluorescein on S5 (nascent lagging strand), 25 bp duplex, 3' overhang 25 nt on strand 1"}, "[7]": {"conditions": "label: 3' fluorescein, single strand"}}, "data": [{"binder": "3' Overhang (oML276/oML277) (mixed) DNA 1: AACGTCATAGACGATTACATTGCTACATGGAGCTGTCTAGAGGATCCGAC DNA 2: TAGCAATGTAATCGTCTATGACGTT", "values": [{"measurement": "Kd", "setting": "[1]; [6]", "value": "234 ± 62", "unit": "nM"}, {"measurement": "Kd", "setting": "[2]; [6]", "value": "628 ± 95", "unit": "nM"}]}, {"binder": "N. gonorrhoeae PriB (natural protein) MGFTNLVSLAALIEKAFPIRYTPAGIPVLDIILKHESWQEENGQQCLVQLEIPARILGRQAEEWQYRQGDCATVEGFLAQKSRRSLMPMLRIQNIKEYKG", "values": [{"measurement": "fold stimulation of PriA helicase activity by PriB (unwinding with versus without PriB; 2 nM PriA, 100 nM PriB monomers, 1 nM 15 bp fork, Fork 1)", "setting": "[3]", "value": 1.2, "unit": "fold"}, {"measurement": "fold stimulation of PriA helicase activity by PriB (unwinding with versus without PriB; 2 nM PriA, 100 nM PriB monomers, 1 nM 25 bp fork, Fork 2)", "setting": "[3]", "value": 1.7, "unit": "fold"}, {"measurement": "fold stimulation of PriA helicase activity by PriB (unwinding with versus without PriB; 2 nM PriA, 100 nM PriB monomers, 1 nM 40 bp fork, Fork 3)", "setting": "[3]", "value": 2.4, "unit": "fold"}, {"measurement": "percent unwinding of 1 nM Fork 3 by 2 nM PriA against PriB concentration (0 to 100 nM as monomers; 36% without PriB, near saturation at 20 nM)", "setting": "[4]", "value": 86, "unit": "%"}]}, {"binder": "AAGCACAATTACCCACGC (ssDNA)", "note": "[ssDNA (oML228)]", "values": [{"measurement": "Kd", "setting": "[1]; [7]", "value": "307 ± 43", "unit": "nM"}, {"measurement": "Kd", "setting": "[2]; [7]", "value": "662 ± 37", "unit": "nM"}]}, {"binder": "N. gonorrhoeae PriA (Neisseria gonorrhoeae FA 1090) (protein) MIYHRIAVNVPLSDGLLTYSHSEPLPPGTRVLVPFRNKTVVGMVWETDIAPDMDAARILSVQTVFVEEKPLSQSWRDLLAFTSRYYHYPTGQAVFAALPQGLKETRAVEMPQPPLFYALNEAGRAQTPPPARFNKKAALWDALLSGEMTMAALKQANAQAAKLIEDWAEQGWIETTEAAKPVLRPYRGQASHSEFVLNTGQQKASDEIQTALGRFRSFLLYGITGSGKTEVYFDAMAKVLAQGRQVLFLLPEINLTPQLLKRVENRFADVPTAVLHSRMAAGRRTQDYLRAMLGQAKLVIGTRLAVFTPLPDVGLIVVDEEHDGSFKQDNELRYHARDLAVWRAKQGGCPVVLGSATPSLESWHKAQSGAYRLLQLTERAHASAQLPQVDILNIGRLKLDNGFSPQALQLLKQNFEAGGMSLVYLNRRGFAPALFCGDCGHTFGCPNCSAKMVLHQRARQLRCHHCDHREPIPFKCPDCGNQDLTAVGHGTQRVEETLRAFLPKAAVVRVDRDSTAHKNDWADLYRRIANDEIDILVGTQMLAKGHDFARLNLVIVLNADGSLYSADFRAPERLFAELMQVSGRAGRADKPGKVLIQTQLPEHPVFAAVKAQDYAVFAENELNERQMFAMPPFGFQTAVRADAPRVADAMEFLNAAKETLAPLLPESVSRFGAAPMLMVRLAERERAQVFLESTSRQDLHRAVSLWVQVLQQNRDGKIRWSVDVDPQEA", "values": [{"measurement": "Km", "setting": "[5]", "value": "54 ± 19", "unit": "µM"}, {"measurement": "kcat", "setting": "[5]", "value": "9 ± 1", "unit": "s⁻¹"}]}]}
